Source: patent publication CN111110862A (dated 2020)
Changes are numbered by the printed parent chain. Like-named read-outs stand apart in the source and are kept apart here. One block for each binder: values may come before it.

Columns and labels:
鼠CLDN18.1(mCLDN18.1) = target: T1, 鼠CLDN18.1(mCLDN18.1) (mouse, UniProt P56857 1-264); test: cell ELISA on fixed mCLDN18.1+cell
T1 construct: also called mouse claudin-18 isoform A1.1; mCLDN18.1+cell
T1 sequence: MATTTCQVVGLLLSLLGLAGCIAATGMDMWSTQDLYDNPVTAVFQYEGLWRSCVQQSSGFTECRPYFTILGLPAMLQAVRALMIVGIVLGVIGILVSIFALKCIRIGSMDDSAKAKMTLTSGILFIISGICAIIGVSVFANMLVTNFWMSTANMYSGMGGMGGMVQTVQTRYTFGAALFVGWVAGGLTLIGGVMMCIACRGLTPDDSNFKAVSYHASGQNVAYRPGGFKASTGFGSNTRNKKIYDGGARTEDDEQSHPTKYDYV

人CLDN18.1(hCLDN18.1) = target: T2, 人CLDN18.1(hCLDN18.1) (human, UniProt P56856 1-261); test: cell ELISA on fixed hCLDN18.1+cell
T2 construct: also called human claudin-18 isoform 1; 密蛋白18.1
T2 sequence: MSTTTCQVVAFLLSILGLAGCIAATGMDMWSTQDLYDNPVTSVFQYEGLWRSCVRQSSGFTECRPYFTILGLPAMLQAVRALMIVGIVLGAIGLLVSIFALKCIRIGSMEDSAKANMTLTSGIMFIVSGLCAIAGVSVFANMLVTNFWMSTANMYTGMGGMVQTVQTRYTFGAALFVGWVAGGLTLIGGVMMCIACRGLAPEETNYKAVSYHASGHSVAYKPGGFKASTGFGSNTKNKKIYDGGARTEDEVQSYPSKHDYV

鼠CLDN18.2(mCLDN18.2) = target: T3, 鼠CLDN18.2(mCLDN18.2) (mouse, UniProt P56857 10-264); test: cell ELISA on fixed mCLDN18.2+cell
T3 construct: also called mouse claudin-18 isoform A2.1; mCLDN18.2+cell
T3 chain: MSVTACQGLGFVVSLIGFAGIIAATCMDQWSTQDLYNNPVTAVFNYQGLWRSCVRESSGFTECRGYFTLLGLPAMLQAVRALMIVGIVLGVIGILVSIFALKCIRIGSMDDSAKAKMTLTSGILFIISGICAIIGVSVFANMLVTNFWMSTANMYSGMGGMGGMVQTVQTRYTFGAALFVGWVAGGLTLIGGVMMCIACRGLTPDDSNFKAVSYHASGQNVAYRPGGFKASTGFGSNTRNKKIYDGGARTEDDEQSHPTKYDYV

人CLDN18.2(hCLDN18.2) [1] = target: T4, 人CLDN18.2(hCLDN18.2) (human, UniProt P56856 24-261); test: cell-based or functional assay
人CLDN18.2(hCLDN18.2) [2] = target: T4, 人CLDN18.2(hCLDN18.2); test: cell-based or functional assay; remark: listed apart in the source

binding result (鼠CLDN18.1(mCLDN18.1)): no binding (tested: 200nM) | binding result (人CLDN18.1(hCLDN18.1)): no binding (tested: 200nM) | fold better binding (EC50) than Ref (鼠CLDN18.2(mCLDN18.2)): > 4 fold | fold higher Emax than Ref (鼠CLDN18.2(mCLDN18.2)): > 1 fold
B1: anti-hCLDN18.2鼠源抗体mab5b (antibody, human IgG1, kappa, V domains shown)
VH: QVQLQQSGAELIGPGTSVKVSCKASGYAFSNYLIEWVKQRPEQGLEWIGLINPGSGGTNYNEKFKGKATLTADKSSSTAYMQLSSLTSDDSAVYFCARVYYGNSFAYWGQGTLVTVSA
VL: DIVMTQSPSSLTVTAGEKVTMSCKSSQSLLNSGNQKNYLTWYQQKPGQPPKLLIYWASTRESGVPDRFTGSGSGTHFTLTISSVQAEDLAVYYCQNDYFYPFTFGSGTKLEKKR

CDC EC50 (LDH release, human serum, hCLDN18.2+ target cells) (人CLDN18.2(hCLDN18.2) [1]): 1.3 µg/mL | CDC EC50 (LDH release, human serum, hCLDN18.2+ target cells) (人CLDN18.2(hCLDN18.2) [2]): 0.255 µg/mL
B2: Ab24抗体 (antibody, human IgG1, kappa, V domains shown)
VH: QVQLVQSGAEVKKPGSSVKVSCKASGYAFSNYLIEWVRQAPGQGLEWMGLINPGSGGTNYNEKFKGKVTITADKSTSTAYMELSSLRSEDTAVYYCARVYYGNTFAYWGQGTLVTVSS
VL: DIVMTQSPDSLAVSLGERATINCKSSQSLLNTGNNKNYLAWYQQKPGQPPKLLIYWASTRESGVPDRFSGSGSGTDFTLTISSLQAEDVAVYYCQNDYFYPFTFGQGTKLEIKR

CDC EC50 (LDH release, human serum, hCLDN18.2+ target cells) (人CLDN18.2(hCLDN18.2) [1]): 1.75 µg/mL
B3: Ab36抗体 (antibody, human IgG1, kappa, V domains shown)
VH: B2 VH with R38K, M48I, V68A
VL: B2 VL with N22S

CDC EC50 (LDH release, human serum, hCLDN18.2+ target cells) (人CLDN18.2(hCLDN18.2) [1]): 2.12 µg/mL
B4: Ab51抗体 (antibody, human IgG1, kappa, V domains shown)
VH: B2 VH with K67R, K74E
VL: B2 VL
